Results as given in FireProtDB (doi:10.1006/jmbi.1995.0599).

B1: Lysozyme C, P61626 (parent)
chain: MKALIVLGLVLLSVTVQGKVFERCELARTLKRLGMDGYRGISLANWMCLAKWESGYNTRATNYNAGDRSTDYGIFQINSRYWCNDGKTPGAVNACHLSCSALLQDNIADAVACAKRVVRDPQGIRAWVAWRNRCQNRDVRQYVQGCGV

Variants of: B1
Settings: Homo sapiens, pH 2.7, Thermal, DSC, glycine 0.05 M, reversible: yes, structure 1LZ1, whole UniProt chain shown

Variant	ddG of mutation (higher = less stable) (64.9 °C) [kcal/mol]	heat capacity change of unfolding (64.9 °C) [kcal/mol/K]	Tm [°C]	change of melting temperature, mutant - wild type (higher = more stable) [°C]	heat capacity change of unfolding [kcal/mol/K]	unfolding enthalpy (calorimetric) [kcal/mol]	unfolding enthalpy (van 't Hoff) [kcal/mol]
MKALIVLGLVLLSVTVQGKVFERCELARTLKRLGMDGYRGVSLANWMCLAKWESGYNTRATNYNAGDRSTDYGIFQINSRYWCNDGKTPGAVNACHLSCSALLQDNIADAVACAKRVVRDPQGIRAWVAWRNRCQNRDVRQYVQGCGV [I41V]	0.36	1.39	63.8	-1.1	1.39	112	120
MKALIVLGLVLLSVTVQGKVFERCELARTLKRLGMDGYRGISLANWMCLAKWESGYNTRATNYNAGDRSTDYGVFQINSRYWCNDGKTPGAVNACHLSCSALLQDNIADAVACAKRVVRDPQGIRAWVAWRNRCQNRDVRQYVQGCGV [I74V]	1.2	1.34	61.3	-3.6	1.34	114	117
MKALIVLGLVLLSVTVQGKVFERCELARTLKRLGMDGYRGISLANWMCLAKWESGYNTRATNYNAGDRSTDYGIFQVNSRYWCNDGKTPGAVNACHLSCSALLQDNIADAVACAKRVVRDPQGIRAWVAWRNRCQNRDVRQYVQGCGV [I77V]			61.5	-3.4	1.2	110	117
MKALIVLGLVLLSVTVQGKVFERCELARTLKRLGMDGYRGISLANWMCLAKWESGYNTRATNYNAGDRSTDYGIFQINSRYWCNDGKTPGAVNACHLSCSALLQDNIADAVACAKRVVRDPQGVRAWVAWRNRCQNRDVRQYVQGCGV [I124V]	0.72	1.41	62.7	-2.2	1.41	109	114
MKALIVLGLVLLSVTVQGKVFERCELARTLKRLGMDGYRGISLANWMCLAKWESGYNTRATNYNAGDRSTDYGIFQINSRYWCNDGKTPGAVNACHLSCSALLQDNVADAVACAKRVVRDPQGIRAWVAWRNRCQNRDVRQYVQGCGV [I107V]	0.48	1.91	63.5	-1.4	1.91	116	122
